This is an account of results in publication PMC8003784, “Two Key Amino Acids Variant of α-L-arabinofuranosidase from Bacillus subtilis Str. 168 with Altered Activity for Selective Conversion Ginsenoside Rc to Rd” (Molecules, 2021).

The Km is the concentration of substrate that gives half-maximal velocity. A word on the kcat: it is the number of substrate molecules converted per active site and unit of time at saturation. Usually kcat/Km stands for the turnover number divided by the Michaelis constant.

To fix the notation:
B1: BsAbfA (Bacillus subtilis subsp. subtilis str. 168) (protein)
chain: MKKARMIVDKEYKIGEVDKRIYGSFIEHMGRAVYEGIYEPDHPEADEDGFRKDVQSLIKELQVPIIRYPGGNFLSGYNWEDGVGPVENRPRRLDLAWQTTETNEVGTNEFLSWAKKVNTEVNMAVNLGTRGIDAARNLVEYCNHPKGSYWSDLRRSHGYEQPYGIKTWCLGNEMDGPWQIGHKTADEYGRLAAETAKVMKWVDPSIELVACGSSNSGMPTFIDWEAKVLEHTYEHVDYISLHTYYGNRDNNLPNYLARSMDLDHFIKSVAATCDYVKAKTRSKKTINLSLDEWNVWYHSNEADKKVEPWITARPILEDIYNFEDALLVGSLLITMLQHADRVKIACLAQLVNVIAPIMTEKGGEAWRQPIFYPYMHASVYGRGESLKPLISSPKYDCSDFTDVPYVDAAVVYSEEEETLTIFAVNKAEDQMETEISLRGFESYQIAEHIVLEHQDIKATNQHNRKNVVPHSNGSSSVSENGLTAHFTPLSWNVIRLKKQS
notes: full ORF, codon-optimised, N-terminal His-tag (pET-28a), E. coli BL21(DE3), Ni-NTA purified, approx. 60 kDa; GH51
B2: BsAbfA (Bacillus subtilis subsp. subtilis str. 168; E292D) (protein)
chain: MKKARMIVDKEYKIGEVDKRIYGSFIEHMGRAVYEGIYEPDHPEADEDGFRKDVQSLIKELQVPIIRYPGGNFLSGYNWEDGVGPVENRPRRLDLAWQTTETNEVGTNEFLSWAKKVNTEVNMAVNLGTRGIDAARNLVEYCNHPKGSYWSDLRRSHGYEQPYGIKTWCLGNEMDGPWQIGHKTADEYGRLAAETAKVMKWVDPSIELVACGSSNSGMPTFIDWEAKVLEHTYEHVDYISLHTYYGNRDNNLPNYLARSMDLDHFIKSVAATCDYVKAKTRSKKTINLSLDDWNVWYHSNEADKKVEPWITARPILEDIYNFEDALLVGSLLITMLQHADRVKIACLAQLVNVIAPIMTEKGGEAWRQPIFYPYMHASVYGRGESLKPLISSPKYDCSDFTDVPYVDAAVVYSEEEETLTIFAVNKAEDQMETEISLRGFESYQIAEHIVLEHQDIKATNQHNRKNVVPHSNGSSSVSENGLTAHFTPLSWNVIRLKKQS
notes: as for B1
B3: BsAbfA (Bacillus subtilis subsp. subtilis str. 168; E173Q) (protein)
chain: MKKARMIVDKEYKIGEVDKRIYGSFIEHMGRAVYEGIYEPDHPEADEDGFRKDVQSLIKELQVPIIRYPGGNFLSGYNWEDGVGPVENRPRRLDLAWQTTETNEVGTNEFLSWAKKVNTEVNMAVNLGTRGIDAARNLVEYCNHPKGSYWSDLRRSHGYEQPYGIKTWCLGNQMDGPWQIGHKTADEYGRLAAETAKVMKWVDPSIELVACGSSNSGMPTFIDWEAKVLEHTYEHVDYISLHTYYGNRDNNLPNYLARSMDLDHFIKSVAATCDYVKAKTRSKKTINLSLDEWNVWYHSNEADKKVEPWITARPILEDIYNFEDALLVGSLLITMLQHADRVKIACLAQLVNVIAPIMTEKGGEAWRQPIFYPYMHASVYGRGESLKPLISSPKYDCSDFTDVPYVDAAVVYSEEEETLTIFAVNKAEDQMETEISLRGFESYQIAEHIVLEHQDIKATNQHNRKNVVPHSNGSSSVSENGLTAHFTPLSWNVIRLKKQS
notes: as for B1
B4: BsAbfA (Bacillus subtilis subsp. subtilis str. 168; E173D) (protein)
chain: MKKARMIVDKEYKIGEVDKRIYGSFIEHMGRAVYEGIYEPDHPEADEDGFRKDVQSLIKELQVPIIRYPGGNFLSGYNWEDGVGPVENRPRRLDLAWQTTETNEVGTNEFLSWAKKVNTEVNMAVNLGTRGIDAARNLVEYCNHPKGSYWSDLRRSHGYEQPYGIKTWCLGNDMDGPWQIGHKTADEYGRLAAETAKVMKWVDPSIELVACGSSNSGMPTFIDWEAKVLEHTYEHVDYISLHTYYGNRDNNLPNYLARSMDLDHFIKSVAATCDYVKAKTRSKKTINLSLDEWNVWYHSNEADKKVEPWITARPILEDIYNFEDALLVGSLLITMLQHADRVKIACLAQLVNVIAPIMTEKGGEAWRQPIFYPYMHASVYGRGESLKPLISSPKYDCSDFTDVPYVDAAVVYSEEEETLTIFAVNKAEDQMETEISLRGFESYQIAEHIVLEHQDIKATNQHNRKNVVPHSNGSSSVSENGLTAHFTPLSWNVIRLKKQS
notes: as for B1
B5: BsAbfA (Bacillus subtilis subsp. subtilis str. 168; E292Q) (protein)
chain: MKKARMIVDKEYKIGEVDKRIYGSFIEHMGRAVYEGIYEPDHPEADEDGFRKDVQSLIKELQVPIIRYPGGNFLSGYNWEDGVGPVENRPRRLDLAWQTTETNEVGTNEFLSWAKKVNTEVNMAVNLGTRGIDAARNLVEYCNHPKGSYWSDLRRSHGYEQPYGIKTWCLGNEMDGPWQIGHKTADEYGRLAAETAKVMKWVDPSIELVACGSSNSGMPTFIDWEAKVLEHTYEHVDYISLHTYYGNRDNNLPNYLARSMDLDHFIKSVAATCDYVKAKTRSKKTINLSLDQWNVWYHSNEADKKVEPWITARPILEDIYNFEDALLVGSLLITMLQHADRVKIACLAQLVNVIAPIMTEKGGEAWRQPIFYPYMHASVYGRGESLKPLISSPKYDCSDFTDVPYVDAAVVYSEEEETLTIFAVNKAEDQMETEISLRGFESYQIAEHIVLEHQDIKATNQHNRKNVVPHSNGSSSVSENGLTAHFTPLSWNVIRLKKQS
notes: as for B1

Substrate in this data set: O=[N+]([O-])c1ccc(O[C@@H]2O[C@@H](CO)[C@H](O)[C@H]2O)cc1
Briefly: purified protein. In kind it is biochemical, Bacillus subtilis. As to conditions: pH 5, 40 °C, 50 mM citric acid/sodium citrate.
As for B1, the Km stood at 600 ± 80 µM, the kcat is 109 ± 8.6 s⁻¹ and the kcat/Km turned out to be 182000 ± 6900 M⁻¹ s⁻¹.
For B2, in that order: 700 ± 60 µM, 0.9 ± 0.05 s⁻¹ and 1300 ± 30 M⁻¹ s⁻¹.
Take B3: the Michaelis-Menten constant (Km) came out at 400 ± 70 µM, the kcat was determined as 2.5 ± 2.1 s⁻¹ and the kcat/Km was 6300 ± 90 M⁻¹ s⁻¹.
Turning to B4, the Km came out at 200 ± 50 µM, the kcat amounted to 0.5 s⁻¹ and the catalytic efficiency (kcat/Km) is 2500 ± 60 M⁻¹ s⁻¹.
Turning to B5, the Km was 700 ± 90 µM, the kcat amounted to 1.6 ± 0.04 s⁻¹ and the specificity constant (kcat/Km) was 2300 ± 50 M⁻¹ s⁻¹.
